The results in this text go back to US20230391850A1.

For assay [1], the target named is human polyclonal IgG (Gammanorm) (human). Briefly: Biacore SPR, remaining IgG binding capacity after 100 NaOH cycles as a ratio to the reference ligand SEQ ID NO: 12.
Assay [2] has the same target. The experiment in a line: Biacore SPR, ligand on CM5 chip, 1 mg/ml human polyclonal IgG flowed over; signal left after 100 cycles of 10 min in 0.5 M NaOH. A general note: SPR reads the build-up and loss of mass on a sensor chip optically.
For assay [3] the target is unchanged. Briefly: Biacore SPR, reference ligand on CM5 chip, 1 mg/ml human polyclonal IgG; signal left after 100 cycles of 10 min in 0.5 M NaOH (run beside SEQ ID NO 8).
The target is the same in assay [4]. The experiment in a line: Biacore SPR, reference ligand on CM5 chip, 1 mg/ml human polyclonal IgG; signal left after 100 cycles of 10 min in 0.5 M NaOH (run beside SEQ ID NO 9).

With “Zvar(Q9W, N11E, Q40V, A42K, N43A, L44I)1 (designed binder)”, in assay [1], the Capacity relative to Ref was found to be 1.09. Moreover, the Capacity after 100 cycles (remaining IgG binding capacity) in assay [2] worked out at 70%.
For “Zvar(Q9A, N11R, Q40V, A42K, N43A, L44I)1 (designed binder)” the same measures were 1.14 and 74%.
Take “Zvar(Q9A,N11E,Q40V,A42K,N43A,L44Di (SEQ ID NO: 12) (designed binder)”: the values for the Reference capacity after 100 cycles (remaining IgG binding capacity) in assay [3] and in assay [4] were 65% and 64%, respectively.
